Reference: patent publication US11306156

Key:
[1] = target: tissue factor (TF) antigen (UniProt P13726); test: SPR; log ratio against wild-type D3H44 Fab
[2] = target: tissue factor (TF) antigen (UniProt P13726); test: SPR (ProteOn XPR36): Fab captured via His tag on anti-penta-His, TF as analyte, 1:1 fit
[3] = target: tissue factor (TF) antigen (UniProt P13726); test: SPR (ProteOn), Fab captured by anti-penta-His, TF as analyte, 1:1 fit
[4] = target: tissue factor (TF) antigen (UniProt P13726); test: SPR (ProteOn), against wild-type D3H44 Fab
[5] = target: tissue factor (TF) antigen (UniProt P13726); test: SPR KD against wild-type D3H44 Fab (reference KD 0.157 nM)
[6] = target: tissue factor (TF) antigen (UniProt P13726); test: SPR (ProteOn), Fab captured on anti-penta-His, TF analyte, 1:1 fit

tissue factor (TF) antigen, sequence (P13726 33-251 limits assumed): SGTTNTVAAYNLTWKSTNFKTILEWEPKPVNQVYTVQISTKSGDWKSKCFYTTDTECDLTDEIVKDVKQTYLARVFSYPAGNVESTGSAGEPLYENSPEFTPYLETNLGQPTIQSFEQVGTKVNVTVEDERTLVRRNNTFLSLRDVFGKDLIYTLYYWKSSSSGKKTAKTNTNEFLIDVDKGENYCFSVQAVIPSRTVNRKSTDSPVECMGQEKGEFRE

D3H44 Fab heterodimer, H S186K / L Q124E_Q160E_T180E (H1L1 of LCCA sets 9836 and 9841)
Change in KD with respect to wild type (-(log(KD design) - log(KD wt))) [1]: 0.09
Kd [2]: 0.13 nM

D3H44 Fab heterodimer, H1L1 of LCCA set 9632 (H: L143E_K145T_Q179D; L: Q124R_T178R)
Kd [3]: 0.14 nM
Change in KD with respect to wild type (-(log(KD design) - log(KD wt))) [4]: 0.04

D3H44 Fab heterodimer, H1L1 of LCCA set 9588 (H: L143E_K145T; L: Q124R)
Kd [3]: 0.28 nM
Change in KD with respect to wild type (-(log(KD design) - log(KD wt))) [4]: -0.25

D3H44 Fab heterodimer, H S186K / L Q124E_T180E (H1L1 of LCCA sets 9855, 9860 and 9863)
Change in KD with respect to wild type (-(log(KD design) - log(KD wt))) [1]: 0.46
Kd [2]: 0.06 nM

D3H44 Fab heterodimer, H1L1 of LCCA sets 9708, 9712 and 9716 (H: L143E_K145T_S188L; L: Q124R_Q160K_T178R)
Kd [3]: 0.24 nM
Change in KD with respect to wild type (-(log(KD design) - log(KD wt))) [4]: -0.19

D3H44 Fab heterodimer, H1L1 of LCCA set 9867 (H: S186R; L: Q124E_Q160E_T178E)
Kd [3]: 0.14 nM
Change in KD with respect to wild type (-(log(KD design) - log(KD wt))) [4]: 0.06

D3H44 Fab heterodimer, H1L1 of LCCA sets 9869, 9871, 9874, 9876 and 9879 (H: S186R; L: Q124E_Q160E_T180E)
Kd [3]: 0.05 nM
Change in KD with respect to wild type (-(log(KD design) - log(KD wt))) [4]: 0.51

D3H44 Fab heterodimer, H1L1 of LCCA set 9803 (H: Q179R; L: Q124E_S131T_T178F_T180E)
Kd [3]: 0.11 nM
Change in KD with respect to wild type (-(log(KD design) - log(KD wt))) [4]: 0.14

D3H44 Fab heterodimer, H S186K / L Q124E_S176L_T180E (H1L1 of LCCA set 9848)
Change in KD with respect to wild type (-(log(KD design) - log(KD wt))) [1]: 0.03
Kd [2]: 0.15 nM

D3H44 Fab heterodimer, H1L1 of LCCA sets 9763 and 9773 (H: Q179K; L: Q124E_Q160E_T180E)
Kd [3]: 0.32 nM
Change in KD with respect to wild type (-(log(KD design) - log(KD wt))) [4]: -0.31

D3H44 Fab heterodimer, H S186K / L Q124E_S131T_T178Y_T180E (H1L1 of LCCA set 9846)
Change in KD with respect to wild type (-(log(KD design) - log(KD wt))) [1]: 0.09
Kd [2]: 0.13 nM

D3H44 Fab heterodimer, H1L1 of LCCA set 9688 (H: L143E_K145T_Q179E_S188L; L: Q124R_T178R)
Kd [3]: 0.34 nM
Change in KD with respect to wild type (-(log(KD design) - log(KD wt))) [4]: -0.34

D3H44 Fab heterodimer, H: L124A_Q179K, L: Q124E_V133W_S176T_T178L_T180E (H1L1 Fab of LCCA set 9099)
Change in KD with respect to wild type (-(log(KD design) - log(KD wt))) [5]: -0.09
Kd [6]: 0.19 nM

D3H44 Fab heterodimer, H S186R / L Q124E_S176L_T180E (H1L1 of LCCA set 9886)
Change in KD with respect to wild type (-(log(KD design) - log(KD wt))) [1]: -0.06
Kd [2]: 0.18 nM

D3H44 Fab heterodimer, H L143R / L Q124E_V133E (H1L1 of LCCA sets 9735 and 9737)
Change in KD with respect to wild type (-(log(KD design) - log(KD wt))) [1]: -0.09
Kd [2]: 0.2 nM

D3H44 Fab heterodimer, H1L1 of LCCA set 9843 (H: S186K; L: Q124E_S131T_T178F_T180E)
Kd [3]: 0.17 nM
Change in KD with respect to wild type (-(log(KD design) - log(KD wt))) [4]: -0.03

D3H44 Fab heterodimer, H: S186K, L: Q124E_T180E (H1L1 Fab of LCCA sets 9853 and 9858)
Change in KD with respect to wild type (-(log(KD design) - log(KD wt))) [5]: 0.46
Kd [6]: 0.06 nM

D3H44 Fab heterodimer, H1L1 of LCCA set 9684 (H: L143E_K145T_Q179E; L: T178R)
Kd [3]: 0.3 nM
Change in KD with respect to wild type (-(log(KD design) - log(KD wt))) [4]: -0.28

D3H44 Fab heterodimer, H1L1 of LCCA set 9444 (H: L124R_Q179K; L: V133G_S176D_T180E)
Kd [3]: 0.28 nM
Change in KD with respect to wild type (-(log(KD design) - log(KD wt))) [4]: -0.26

D3H44 Fab heterodimer, H: L143E_K145T_Q179E, L: Q124R_T178K (H1L1 Fab of LCCA set 9660)
Change in KD with respect to wild type (-(log(KD design) - log(KD wt))) [5]: -0.08
Kd [6]: 0.19 nM

D3H44 Fab heterodimer, H: L143R, L: Q124E_V133E (H1L1 Fab of LCCA set 9740)
Change in KD with respect to wild type (-(log(KD design) - log(KD wt))) [5]: -0.09
Kd [6]: 0.2 nM

D3H44 Fab heterodimer, H: S186R, L: Q124E_T180E (H1L1 Fab of LCCA sets 9891, 9893, 9896 and 9898)
Change in KD with respect to wild type (-(log(KD design) - log(KD wt))) [5]: 0.36
Kd [6]: 0.07 nM

D3H44 Fab heterodimer, H: L124A_Q179K, L: Q124E_V133W_S176T_T178E_T180E (H1L1 Fab of LCCA set 9098)
Change in KD with respect to wild type (-(log(KD design) - log(KD wt))) [5]: -0.03
Kd [6]: 0.17 nM

D3H44 Fab heterodimer, H1L1 of LCCA set 9575 (H: L143D_K145T_Q179E; L: T178R)
Kd [3]: 0.28 nM
Change in KD with respect to wild type (-(log(KD design) - log(KD wt))) [4]: -0.25

D3H44 Fab heterodimer, H: S186K, L: Q124E_T178E_T180E (H1L1 Fab of LCCA set 9852)
Change in KD with respect to wild type (-(log(KD design) - log(KD wt))) [5]: 0.02
Kd [6]: 0.15 nM

D3H44 Fab heterodimer, H: L143E_K145T_Q179E, L: Q124R_Q160K_T178R (H1L1 Fab of LCCA set 9654)
Change in KD with respect to wild type (-(log(KD design) - log(KD wt))) [5]: 0.02
Kd [6]: 0.15 nM

D3H44 Fab heterodimer, H: Q179K, L: Q124E_T178E (H1L1 Fab of LCCA set 9784)
Change in KD with respect to wild type (-(log(KD design) - log(KD wt))) [5]: 0.05
Kd [6]: 0.14 nM

D3H44 Fab heterodimer, H1L1 of LCCA set 9863 (H: S186K; L: Q124E_T180E)
Kd [3]: 0.06 nM
Change in KD with respect to wild type (-(log(KD design) - log(KD wt))) [4]: 0.46

D3H44 Fab heterodimer, H1L1 of LCCA set 9983 (H: Q179K; L: S131E)
Kd [3]: 0.14 nM
Change in KD with respect to wild type (-(log(KD design) - log(KD wt))) [4]: 0.05

D3H44 Fab heterodimer, H: L143E_K145T_Q179E, L: Q124K_T178R (H1L1 Fab of LCCA set 9648)
Change in KD with respect to wild type (-(log(KD design) - log(KD wt))) [5]: 0.05
Kd [6]: 0.14 nM

D3H44 Fab heterodimer, H: Q179K, L: Q124E_T180E (H1L1 Fab of LCCA sets 9787, 9792 and 9794)
Change in KD with respect to wild type (-(log(KD design) - log(KD wt))) [5]: 0.16
Kd [6]: 0.11 nM

D3H44 Fab heterodimer, H: L143E_K145T_Q179D, L: Q124R_T178R (H1L1 Fab of LCCA set 9632)
Change in KD with respect to wild type (-(log(KD design) - log(KD wt))) [5]: 0.04
Kd [6]: 0.14 nM

D3H44 Fab heterodimer, H1L1 of LCCA sets 9831, 9833 and 9841 (H: S186K; L: Q124E_Q160E_T180E)
Kd [3]: 0.13 nM
Change in KD with respect to wild type (-(log(KD design) - log(KD wt))) [4]: 0.09

D3H44 Fab heterodimer, H: Q179K, L: Q124E_Q160E_T180E (H1L1 Fab of LCCA set 9759)
Change in KD with respect to wild type (-(log(KD design) - log(KD wt))) [5]: -0.31
Kd [6]: 0.32 nM

D3H44 Fab heterodimer, H1L1 of LCCA set 9987 (H: L143E_K145T; L: Q124R_T178R)
Kd [3]: 0.11 nM
Change in KD with respect to wild type (-(log(KD design) - log(KD wt))) [4]: 0.15

D3H44 Fab heterodimer, H: S186R, L: Q124E_Q160E_T178E (H1L1 Fab of LCCA set 9868)
Change in KD with respect to wild type (-(log(KD design) - log(KD wt))) [5]: 0.06
Kd [6]: 0.14 nM

D3H44 Fab heterodimer, H1L1 of LCCA set 9887 (H: S186R; L: Q124E_T178E)
Kd [3]: 0.14 nM
Change in KD with respect to wild type (-(log(KD design) - log(KD wt))) [4]: 0.06

D3H44 Fab heterodimer, H1L1 of LCCA set 9901 (H: S186R; L: Q124E_T180E)
Kd [3]: 0.07 nM
Change in KD with respect to wild type (-(log(KD design) - log(KD wt))) [4]: 0.36

D3H44 Fab heterodimer, H: Q179R, L: Q124E_T178E (H1L1 Fab of LCCA set 9810)
Change in KD with respect to wild type (-(log(KD design) - log(KD wt))) [5]: 0.04
Kd [6]: 0.14 nM

D3H44 Fab heterodimer, H: S186K, L: Q124E_Q160E_T178E (H1L1 Fab of LCCA set 9830)
Change in KD with respect to wild type (-(log(KD design) - log(KD wt))) [5]: 0.41
Kd [6]: 0.06 nM

D3H44 Fab heterodimer, H1L1 of LCCA set 9620 (H: L143E_K145T_Q179D; L: Q124R_Q160K_T178R)
Kd [3]: 0.06 nM
Change in KD with respect to wild type (-(log(KD design) - log(KD wt))) [4]: 0.39

D3H44 Fab heterodimer, H1L1 of LCCA set 9741 (H: L143R; L: Q124E_V133E_Q160F)
Kd [3]: 0.07 nM
Change in KD with respect to wild type (-(log(KD design) - log(KD wt))) [4]: 0.34

D3H44 Fab heterodimer, H: S186R, L: Q124E_T178E_T180E (H1L1 Fab of LCCA set 9890)
Change in KD with respect to wild type (-(log(KD design) - log(KD wt))) [5]: 0.49
Kd [6]: 0.05 nM

D3H44 Fab heterodimer, H1L1 of LCCA sets 9881 and 9882 (H: S186R; L: Q124E_S131T_T178F_T180E)
Kd [3]: 0.11 nM
Change in KD with respect to wild type (-(log(KD design) - log(KD wt))) [4]: 0.15

D3H44 Fab heterodimer, H1L1 of LCCA set 9638 (H: L143E_K145T_Q179D; L: T178R)
Kd [3]: 0.11 nM
Change in KD with respect to wild type (-(log(KD design) - log(KD wt))) [4]: 0.17

D3H44 Fab heterodimer, H: Q179R, L: Q124E_Q160E_T178E (H1L1 Fab of LCCA set 9802)
Change in KD with respect to wild type (-(log(KD design) - log(KD wt))) [5]: 0.16
Kd [6]: 0.11 nM

D3H44 Fab heterodimer, H: S186R, L: Q124E_T178E (H1L1 Fab of LCCA set 9888)
Change in KD with respect to wild type (-(log(KD design) - log(KD wt))) [5]: 0.06
Kd [6]: 0.14 nM

D3H44 Fab heterodimer, H1L1 of LCCA set 9885 (H: S186R; L: Q124E_S176L_T180E)
Kd [3]: 0.18 nM
Change in KD with respect to wild type (-(log(KD design) - log(KD wt))) [4]: -0.06
